Results on nine molecules are retold here after patent publication US8247194 (Amgen, dated 2012).

Changes are numbered by the printed parent chain.

Assay [1] concerns the target T1, recombinant human GM-CSF (rhGM-CSF), produced in E. coli (human, UniProt P04141 18-144).
T1 construct: The ELISA of 2.5.2 and the TF-1 proliferation assays say only rhGM-CSF without naming the preparation; they are assigned to this molecule; also called human GM-CSF antigen; recombinant human granulocyte macrophage colony stimulating factor
In words: SPR off-rate ranking, purified periplasmic preparation over immobilized rhGM-CSF; clone listed among the sequenced hits in the 2nd table. The method, then:
FIG. 9: Binding analysis (kinetic off rate) of SCA hits derived from the method of the invention, as determined by SPR. Binding kinetics of the SCA hits were measured injecting 10 µL of purified periplasmic preparation ("PPP") protein solution with a flow rate of 5 µL/min at 25° C. onto the sensor chip. The data were monitored in all four flow cells. Background association with the unmodified CM5 chip surface (FC1) was substracted from the binding to the immobilised rhGM-CSF (FC2) allowing analysis of the specific binding signal (FC2-FC1 response difference). The dissociation rate was monitored for 100 sec (FIG. 4). The amplitude of the binding peak (RUmax) directly correlates to the protein concentration in the injected sample. The kinetic association rate constant (ka) is concentration dependent and can—due to varying concentrations of the PPP protein solution—not be used for the qualitative ranking of the purified PPP SCA material. The kinetic dissociation rate constant (kd) is protein concentration independent and characteristic for the binding strength of the respective SCA hit. The SCA hits with the best apparent off rate were identified.

In assay [2] the target is T1, recombinant human GM-CSF (rhGM-CSF), …. As to the kind of experiment: cell-based or functional assay.

T1 sequence (P04141 18-144 limits assumed): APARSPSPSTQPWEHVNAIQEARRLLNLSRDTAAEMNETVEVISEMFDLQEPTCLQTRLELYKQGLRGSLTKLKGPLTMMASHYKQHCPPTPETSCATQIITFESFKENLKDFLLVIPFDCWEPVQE

B1: half-human SCA B32oN-33 (scFv)
scFv: ELQLVEQSGAALVKPGDSVKMSCKASGYPFTDYIVHWVKQSHGKSLDWIGYINPYSGDTKFNEKFKSKATLTVDKSSSTAYMEFSRLTSEDSAIYYCARSGLIAVYFDYWGQGTTVTVSSGGGGSGGGGSGGGGSELVMTQSPATLSLSPGERATLSCRASQSVRTYLAWYQQKPGQAPRLLIYAASHRATGIPARFSGSGSGTDFTLTISRLEPEDFAVYYCQQYGSSPPTFGQGTKVEIKTGDYKDDDDKHHHHHH
notes: Expressed from pComb3H5BFlag/His
Take B1: the binding result in assay [1] is recorded as “binds”.

B2: half-human SCA C32oN-89 (scFv)
scFv: ELQLVEQSGAALVKPGDSVKMSCKASGYPFTDYIVHWVKQSHGKSLDWIGYINPYSGDTKFNEKFKSKATLTVDKSSSTAYMEFSRLTSEDSAIYYCARSGLIAVYFDYWGQGTTVTVSSGGGGSGGGGSGGGGSELVLTQSPSSLSASVGDRVTITCRASQSISRYLNWYQQKPGKPPKLLIFVASNLQTGVPSRFSGSGSGTDFTLTISSLEPEDFAVYYCQQRSNWPLTFGGGTKVDIKTGDYKDDDDKHHHHHH
notes: as for B1
With B2, the binding result in assay [1] is reported as “binds”.

B3: half-human SCA B32oN-67 (scFv)
scFv: ELQLVEQSGAALVKPGDSVKMSCKASGYPFTDYIVHWVKQSHGKSLDWIGYINPYSGDTKFNEKFKSKATLTVDKSSSTAYMEFSRLTSEDSAIYYCARSGLIAVYFDYWGQGTTVTVSSGGGGSGGGGSGGGGSELVLTQSPGFQSVTPKEKVTITCRASQSIGSSLHWYQQKPDQSPKLLIKFASQSISGVPSRFTGSGSGTDFTLTISSLQPEDIATYYCQQSYSTPWTFGQGTKLEIKTGDYKDDDDKHHHHHH
notes: as for B1
Regarding B3, the binding result in assay [1] is on record as “binds”.

B4: half-human SCA B32oN-48 (scFv)
scFv: ELQLVEQSGAALVKPGDSVKMSCKASGYPFTDYIVHWVKQSHGKSLDWIGYINPYSGDTKFNEKFKSKATLTVDKSSSTAYMEFSRLTSEDSAIYYCARSGLIAVYFDYWGQGTTVTVSSGGGGSGGGGSGGGGSELVLTQSPGFQSVTPKEKVTITCRASQSIGSSLHWYQQKPDQPPKLLIKFASQSISGVPSRFSGSGSGTNFTLTINSLEAEDAATYYCQQSSTLPPTFGQGTKVEIKTGDYKDDDDKHHHHHH
notes: as for B1
For B4, the binding result in assay [1] is reported as “binds”.

B5: half-human SCA C32oN-92 (scFv)
scFv: B4 scFv with G144D, P178S, I190L, N205D, T207A, V239L
notes: as for B1
B5: in assay [1], the binding result is on record as “binds”.

B6: half-human SCA B32oN-73 (scFv)
scFv: B3 scFv with T198S, S200T
notes: as for B1
For B6, in assay [1], the binding result is recorded as “binds”.

B7: half-human SCA C33oN-32 (scFv)
scFv: B4 scFv with G144E, T149A, P178S, I190F, S198G, V239L
As for B7, in assay [2], the “IC50 (read off the curve), TF-1 proliferation, C33ON-32 dimer” value was ~0.1 µg/mL and the “IC50 (read off the curve), TF-1 proliferation, C33ON-32 mono” value is ~0.2 µg/mL.

B8: half-human SCA C33oN-33 (scFv)
scFv: B4 scFv with G144D, P178S, I190L, N205D, S227Y, T228S, L229T, P231S, Q235P
As to B8, in assay [2], the “IC50 (read off the curve), TF-1 proliferation, C33ON-33 dimer” value was ~0.2 µg/mL and the “IC50 (read off the curve), TF-1 proliferation, C33ON-33 mono” value is ~0.2 µg/mL.

B9: half-human SCA B33oN-35 (scFv)
scFv: ELQLVEQSGAALVKPGDSVKMSCKASGYPFTDYIVHWVKQSHGKSLDWIGYINPYSGDTKFNEKFKSKATLTVDKSSSTAYMEFSRLTSEDSAIYYCARSGLIAVYFDYWGQGTTVTVSSGGGGSGGGGSGGGGSELQMTQSPSSLSASVGDRVTITCRASQSIGSSLHWYQQKPDQSPKLLIKFASQSFSGVPSRFGGSGSGTNFTLTINSLEAEDAATYYCQQSSTLPPTFGQGTKLEIKTGDYKDDDDKHHHHHH
notes: as for B1
B9: the binding result in assay [1] is listed as “binds”.
